According to publication PMC5421625 (2017):

B1: w678 clonotype 2 (TCR)
alpha TRAV38-1*01 TRAJ43*01 CDR3: CAFRVSHDMRF
beta TRBV19*01 TRBJ2-1*01 CDR3: CASSIIAGSSYNEQFF
B2: w678 clonotype 4 (TCR)
alpha TRAV12-1*01 TRAJ45*01 CDR3: CVVATYSGGGADGLTF
beta TRBV10-2*01 TRBJ2-3*01 CDR3: CASSSGNPSTDTQYF
B3: w678 clonotype 5 (TCR)
alpha TRAV38-1*01 TRAJ43*01 CDR3: CAFRVSHDMRF
beta TRBV10-2*01 TRBJ2-3*01 CDR3: CASSSGNPSTDTQYF
B4: w830 clonotype 4 (TCR)
alpha TRAV12-1*01 TRAJ43*01 CDR3: CVLNNNDMRF
beta TRBV19*01 TRBJ1-5*01 CDR3: CASSILGASNQPQHF
B5: w830 clonotype 5 (TCR)
alpha TRAV12-1*01 TRAJ43*01 CDR3: CVVNANDMRF
beta TRBV10-3*01 TRBJ2-2*01 CDR3: CAIRARDQNTGELFF
B6: w876 clonotype 5 (TCR)
alpha TRAV38-1*01 TRAJ23*01 CDR3: CAYNQGGKLIF
beta TRBV10-2*01 TRBJ2-2*01 CDR3: CASSVLNTGELFF

Molecular target: T1, MCPyV (Merkel cell polyomavirus) common T-Ag peptide on HLA-A*02:01 (human)
T1 peptide: KLLEIAPNC
Assay: multimer staining

Binder | binding result
B1 | recognises
B2 | recognises
B3 | recognises

Molecular target: T2, MCPyV (Merkel cell polyomavirus) common T-Ag peptide on HLA-A*02:01 (human)
T2 peptide: KLLEIAPNC
Assay: multimer staining

Binder | binding result
B4 | recognises
B5 | recognises
B2 | recognises
B6 | recognises
